Test results from US20090130114A1 (Amgen, published 2009).
Where a chain is given by its changes, count along the chain named.

T1: human WISE (human, UniProt Q6X4U4 24-206)
T1 construct: Recombinant, made in E. coli or mammalian cells; biotinylated in the ELISAs, amine-coupled to CM5 in Biacore; also called huWise; huWISE
T1 sequence: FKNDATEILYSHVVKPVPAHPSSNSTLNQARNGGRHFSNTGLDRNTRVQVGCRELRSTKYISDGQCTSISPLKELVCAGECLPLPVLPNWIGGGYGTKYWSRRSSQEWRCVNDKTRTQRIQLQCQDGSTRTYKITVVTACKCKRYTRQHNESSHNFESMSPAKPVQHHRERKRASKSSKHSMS

B1: Ab-1 (antibody, human IgG2, lambda, V domains shown)
VH: QVQLVQSGAEVKKPGSSVKVSCKASGGTFSSTYISWVRQAPGQGLEWMGWIYAGTGGTRYNRKFTGRVTITADESTSTAYMELSSLRSEDTAVYYCAREGVDGWFTYWGQGTLVTVSS
VL: QSVVTQPPSVSGAPGQRVTMSCTGSSSNLGAGYDVNWYQQLPGKAPKVLIYGNEIRPSGVPDRFSGSKSDTSATLDITGLQTGDEADYYCETWDSSLSTVVFGGGTKLTVLG
notes: Phage-derived human light chain with the humanized Ab-C IgG2 heavy chain, transiently expressed in 293 6E cells
B2: light chain of SEQ ID NO: 114 paired with the heavy chain of SEQ ID NO: 24 (antibody, human IgG2, kappa, V domains shown)
VH: B1 VH
VL: NIQMTQSPGTLSLSPGERATLSCRASQSVTGNHLAWYQQKPGQAPRVLMYDTSSRATGIPDRFSGSGSGTDFTLTISSLQPEDIATYYCQQFDNLPYTFGQGTKLEIKR
B3: Ab-65 (antibody, human IgG2, lambda, V domains shown)
VH: B1 VH
VL: QSVLTQPPSVSGAPGQRVTISCTGSSSNIGAGYDVHWYQQLPRTAPKLLIYGDTNRPSGVPDRFSGSKSGTSASLAITGLQTEDEADYYCQSYDSSLRAYVFGTGTKVTVLG
notes: Phage-derived human light chain with the humanized Ab-C IgG2 heavy chain
B4: Ab-18 (antibody, human IgG2, kappa, V domains shown)
VH: B1 VH
VL: DIQLTQSPSSLSASVGDRVTITCQASQDINNYLSWYQQKPGKAPKVLIYDTSNLETGVPSRFSGSGSGTDFTFTISSLQPEDIATYYCQQSDNLPYTFGQGTKLEIKR
notes: as for B3
B5: Ab-13 (antibody, human IgG2, kappa, V domains shown)
VH: B1 VH
VL: DIQMTQSPSSLSASVGDRVTITCRASQSISEYLNWYQQKPGQAPRLLIYGVSTRATGIAARFSGSGSGTDFTLTISSLQPEDSAVYYCQQDYNVPYTFGQGTKLEIKR
notes: as for B3
B6: Ab-66 (antibody, human IgG2, lambda, V domains shown)
V domain 1: QSVVTQPPSVSGAPGQRVTISCTGSSSNIGAGYDVHWYQQLPGAAPKVLIFGNNNRPSGIPDRVSGSKSGTSASLAISGLQTEDEAVYYCQSYDSSLSAYVFGGGTQVTVLG
V domain 2: B1 VH
notes: as for B3
B7: Ab-62 (antibody, human IgG2, lambda, V domains shown)
VH: B1 VH
VL: QAVLTQPSSVSGAPGRRVTISCTGSSSNIGAGYDVHWYQQLPGKAPKLVISANTNRPSGVPDRFSGSKSGTSASLAITGLQAEDEADYYCQSYDNSVSAYVFGTGTKVTVLG
notes: as for B3
B8: Ab-29 (antibody, human IgG2, kappa, V domains shown)
VH: B1 VH
VL: DIQMTQSPLSLSASVGDRVAITCRASQSISDSLNWYQQKPGKPPKIVIYAASGLPSGVPSRFSGGGSGTDFTLVISTLQPEDFATYYCQQSYSAPLTFGGGTKVEISR
notes: as for B3
B9: light chain of SEQ ID NO: 106 paired with the heavy chain of SEQ ID NO: 24 (antibody, human IgG2, lambda, V domains shown)
VH: B1 VH
VL: NFMLTQPHSVSESPGKTITISCTRSSGSISSNYVQWYQQRPGSSPRIVMSEDDQRPSGVSDRFSGSIDISSNSAFLTISGLKPEDEGDYYCQSYDTDIPYVFGTGTKVTVLG
B10: Ab-28 (antibody, human IgG2, kappa, V domains shown)
VH: B1 VH
VL: DIQMTQSPSSLSASVGDRVTITCRASQSISDYLNWYQQRPGKAPNLLIFASNTLQGGVPSRFRGSGSGTDFTLTINSLQHEDFGTYYCQQSYRTPLTFGGGTKVEIKR
notes: as for B3
B11: light chain of SEQ ID NO: 108 paired with the heavy chain of SEQ ID NO: 24 (antibody, human IgG2, kappa, V domains shown)
VH: B1 VH
VL: DIQMTQSPSSLSASVGDRITISCQASQDIDNYLNWYQQKSGKAPKLLIYDAYNLKAGVPSRFRGSRSGTDFFLTISSLQPEDFATYYCLQQYRYPLTFGGGTKVEIKR
B12: Ab-60 (antibody, human IgG2, lambda, V domains shown)
VH: B1 VH
VL: QSVVTQPPAVSGAPGQRITISCTGSSSNIGAGYDVHWYQQFPGTAPKVLIFANDYRPSGVPDRFSASKSATSASLAIRGLQSEDEADYYCQSYDNRLSGYVFGTGTKVTVLG
notes: as for B3
B13: Ab-48 (antibody, human IgG2, kappa, V domains shown)
VH: B1 VH
VL: DIQMTQSPSSLSASIGDRVTITCQASQDINNYLNWYQQKQGKAPKVLIFDASNLAAGVPSRFSGSGSGTDFTLTISSLQPEDIATYYCQQYDNLPLTFGQGTKVDNKR
notes: as for B3
B14: light chain of SEQ ID NO: 112 paired with the heavy chain of SEQ ID NO: 24 (antibody, human IgG2, kappa, V domains shown)
VH: B1 VH
VL: DIQMTQSPGTLSLSPGERATLSCRTSQSVSSTSVAWYQQKPGQAPRLLMYDASSRAAGIPDRFSGSGSVTDFTLTISRLEPEDFATYYCQQSYSLPYTFGQGTKVEIKR
B15: light chain of SEQ ID NO: 110 paired with the heavy chain of SEQ ID NO: 24 (antibody, human IgG2, lambda, V domains shown)
VH: B1 VH
VL: QSVLTQPPSVSGAPGQRVTISCTGGSSNIGAGYEVHWYQLVPGRAPRFLIHGDNDRPSGVPDRFSASESGSSSFLAISGLQDDDEADYYCQSYDTSLSAWVFGGGTKLTVLG
B16: light chain of SEQ ID NO: 104 paired with the heavy chain of SEQ ID NO: 24 (antibody, human IgG2, lambda, V domains shown)
VH: B1 VH
VL: NFMLTQPHSVSESPGKTVTISCTRNSGSIASNYVQWYQQRPGSSPATVIYEDNQRPSGVPDRFSGSIDISSNSASLTISGLKTEDEADYYCQSYDSSNPFYVFGTGTKVTVLG
notes: as for B3
B17: light chain of SEQ ID NO: 116 paired with the heavy chain of SEQ ID NO: 24 (antibody, human IgG2, kappa, V domains shown)
VH: B1 VH
VL: DIQMTQSPSSLSASVGDRVTITCRASRDISVYVNWYQLKPGQAPRLLIYGASNLGFGVPSRFSGSGYGTDFALTISGLQPEDFATYSCQQSYSIPLTFGQGTRVDTKR
B18: Ab-23 (antibody, human IgG2, kappa, V domains shown)
VH: B1 VH
VL: DIQMTQSPGTLSLSPGERATLFCRASQRVSSSYLAWYQQRPGQAPRLLMYGTSSWATGIPDRFSGSGSGTDFTLTISSLQPEDFATYYCQQSSSIPYTFGQGTKLEIKR
notes: as for B3
B19: Ab-24 (antibody, human IgG2, kappa, V domains shown)
VH: B1 VH
VL: ETTLTQSPALLSLSPGERATLSCRASQTLSFDFFAWYQQKPGQAPSLLISGISTRAAGVPDRFSGSGSGTDFTLTIDRLEPEDFAVYFCQQSSSLPLTFGGGTKVEIRR
notes: as for B3
B20: Ab-63 (antibody, human IgG2, lambda, V domains shown)
VH: B1 VH
VL: QSALTQTPSVSGTPGQRVTISCTGSRSNIGAGYDVQWYQQFPGTAPRLLIYANNIRSSGVPDRFSGSKSGTSASLAITGLQAEDEATYYCQSYDRSLSGYVFGTGTEVTVVG
notes: as for B3
B21: Ab-16 (antibody, human IgG2, kappa, V domains shown)
VH: B1 VH
VL: DIQLTQSPFSLSASVGDRVTITCRASQSINDNLNWYLQKPGKAPKLLIFAASTSQSGVPSRFSGNGFGTDFSLIISGLQPEDVGTYYCQQNDSMPFTFGQGTRLDIKR
notes: as for B3
B22: light chain of SEQ ID NO: 118 paired with the heavy chain of SEQ ID NO: 24 (antibody, human IgG2, kappa, V domains shown)
VH: B1 VH
VL: B11 VL with S9D, K39R, A84G, Y92S, R93S, G100Q

Molecular target: T1, human WISE
Experiment: assay not specified (IgG2 from transient transfection)

Binder | binding result
B1 | binds
B2 | binds
B3 | binds
B4 | binds
B5 | binds
B6 | binds
B7 | binds
B8 | binds
B9 | binds
B10 | binds
B11 | binds
B12 | binds
B13 | binds
B14 | binds
B15 | binds
B16 | binds
B17 | binds
B18 | binds
B19 | binds
B20 | binds
B21 | binds
B22 | binds
